Measurements taken from patent US20260258084A1, “New Peptides as Selective IL-23 Receptor Antagonists” (Sanofi, priority 2022, published 2026).
Starred links: 1 amine or outer side, 2 acyl side, 3 side chain; linkers in the order of their positions; H or OH if unused. Positions of bridges follow the written chain, without caps; N, C: chain ends. Non-standard residues stand in square brackets, D forms with d. Residues, ends and D or L forms follow the SMILES beside them. No end group written: not given here. Yde = (2S)-2-amino-3-[4-[2-(dimethylamino)ethoxy]phenyl]propanoic acid, CN(C)CCOc1ccc(C[C@H](N[*:1])C(=O)[*:2])cc1; Phe(4-OMe) = COc1ccc(C[C@H](N[*:1])C(=O)[*:2])cc1; 2Nal = N[C@@H](Cc1ccc2ccccc2c1)C(=O)O; AEF = NCCOc1ccc(C[C@H](N)C(=O)O)cc1; Dad = desamino-aspartamic acid; αMeL = CC(C)C[C@](C)(N)C(=O)O; Nmapt = not defined here; Thp = NC1(C(=O)O)CCOCC1; Aib = CC(C)(N)C(=O)O; Ahx = NCCCCCC(=O)O; Ava = NCCCCC(=O)O

T1: IL-23 receptor on the surface of HEK-Blue IL-23 cells (UniProt Q5VWK5 24-629, limits assumed)
T1 sequence (looked up): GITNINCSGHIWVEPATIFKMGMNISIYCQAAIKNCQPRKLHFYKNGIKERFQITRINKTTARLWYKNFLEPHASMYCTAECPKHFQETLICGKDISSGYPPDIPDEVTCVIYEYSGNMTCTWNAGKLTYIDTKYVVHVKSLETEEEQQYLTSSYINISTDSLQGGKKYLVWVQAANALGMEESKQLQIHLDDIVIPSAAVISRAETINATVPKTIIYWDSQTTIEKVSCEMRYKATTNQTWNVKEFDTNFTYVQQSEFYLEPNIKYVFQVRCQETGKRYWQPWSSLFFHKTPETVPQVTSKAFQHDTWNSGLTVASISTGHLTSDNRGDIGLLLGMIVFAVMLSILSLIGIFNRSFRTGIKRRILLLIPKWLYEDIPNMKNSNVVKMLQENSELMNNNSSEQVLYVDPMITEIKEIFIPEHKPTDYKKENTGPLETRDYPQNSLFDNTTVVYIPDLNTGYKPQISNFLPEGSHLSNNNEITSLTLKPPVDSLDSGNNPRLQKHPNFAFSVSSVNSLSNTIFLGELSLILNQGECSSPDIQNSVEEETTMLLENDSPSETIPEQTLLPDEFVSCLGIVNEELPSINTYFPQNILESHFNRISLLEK

B1: Compound of SEQ ID NO: 2 (peptide)
peptide: [Ahx]CNTWQC[Phe(4-OMe)][2Nal][Aib]ENN-NH2
modifications: lactam N-11; disulfide 2-7
SMILES: COc1ccc(C[C@@H]2NC(=O)[C@@H]3CSSC[C@H](NC(=O)CCCCCNC(=O)CC[C@@H](C(=O)N[C@@H](CC(N)=O)C(=O)N[C@@H](CC(N)=O)C(N)=O)NC(=O)C(C)(C)NC(=O)[C@H](Cc4ccc5ccccc5c4)NC2=O)C(=O)N[C@@H](CC(N)=O)C(=O)N[C@@H]([C@@H](C)O)C(=O)N[C@@H](Cc2c[nH]c4ccccc24)C(=O)N[C@@H](CCC(N)=O)C(=O)N3)cc1
B2: Compound of SEQ ID NO: 18 (peptide)
peptide: [Nmapt]CKWQC[AEF][2Nal][αMeL]EAG-NH2
modifications: lactam N-10; disulfide 2-6; not fully specified (residue 3); printed as Nmapt(§1)-C(§3)(@2)-K[aAc](@3)-W-Q-C(@2)-Yae-Nal-Mle-E(§1)-A-G-NH2; reading uncertain; also: K3 acetylated (K[aAc]), acetyl site not given here, ε-NH2 takes the Cys2 bond
B3: Compound of SEQ ID NO: 10 (peptide)
peptide: [Ava]CNTWQC[Yde][2Nal][αMeL]EN[dL]-NH2
modifications: lactam N-11; disulfide 2-7
SMILES: CC(C)C[C@@H](NC(=O)[C@H](CC(N)=O)NC(=O)[C@@H]1CCC(=O)NCCCCC(=O)N[C@H]2CSSC[C@H](NC(=O)[C@H](CCC(N)=O)NC(=O)[C@H](Cc3c[nH]c4ccccc34)NC(=O)[C@H]([C@@H](C)O)NC(=O)[C@H](CC(N)=O)NC2=O)C(=O)N[C@@H](Cc2ccc(OCCN(C)C)cc2)C(=O)N[C@@H](Cc2ccc3ccccc3c2)C(=O)N[C@@](C)(CC(C)C)C(=O)N1)C(N)=O
B4: Compound of SEQ ID NO: 16 (peptide)
peptide: [Nmapt]CKWQC[AEF][2Nal][Thp]ENG-NH2
modifications: lactam N-10; disulfide 2-6; not fully specified (residue 3); printed as Nmapt(§1)-C(§3)(@2)-K[aAc](@3)-W-Q-C(@2)-Yae-Nal-Thp-E(§1)-N-G-NH2; reading uncertain; also: K3 acetylated (K[aAc]), acetyl site not given here, ε-NH2 takes the Cys2 bond
B5: Compound of SEQ ID NO: 19 (peptide)
peptide: [Nmapt]CKWQC[AEF][2Nal][Aib]EA[dL]-NH2
modifications: lactam N-10; disulfide 2-6; not fully specified (residue 3); printed as Nmapt(§1)-C(§3)(@2)-K[aAc](@3)-W-Q-C(@2)-Yae-Nal-Aib-E(§1)-A-(D-Leu)-NH2; reading uncertain; also: K3 acetylated (K[aAc]), acetyl site not given here, ε-NH2 takes the Cys2 bond
B6: Compound of SEQ ID NO: 12 (peptide)
peptide: [Nmapt]CKWQC[AEF][2Nal][Aib]ENN-NH2
modifications: lactam N-10; disulfide 2-6; not fully specified (residue 3); printed as Nmapt(§1)-C(§3)(@2)-K[aAc](@3)-W-Q-C(@2)-Yae-Nal-Aib-E(§1)-N—N—NH2; reading uncertain; also: K[aAc]: Cys2 bonded to epsilon-NH2 of acetylated Lys3, acetyl presumably on alpha-amine
B7: Compound of SEQ ID NO: 1 (peptide)
peptide: [Ava]CNTWQC[Phe(4-OMe)][2Nal][Aib]ENN-NH2
modifications: lactam N-11; disulfide 2-7
SMILES: COc1ccc(C[C@@H]2NC(=O)[C@@H]3CSSC[C@H](NC(=O)CCCCNC(=O)CC[C@@H](C(=O)N[C@@H](CC(N)=O)C(=O)N[C@@H](CC(N)=O)C(N)=O)NC(=O)C(C)(C)NC(=O)[C@H](Cc4ccc5ccccc5c4)NC2=O)C(=O)N[C@@H](CC(N)=O)C(=O)N[C@@H]([C@@H](C)O)C(=O)N[C@@H](Cc2c[nH]c4ccccc24)C(=O)N[C@@H](CCC(N)=O)C(=O)N3)cc1
B8: Compound of SEQ ID NO: 13 (peptide)
peptide: [Nmapt]CKWQC[AEF][2Nal][Thp]ENN-NH2
modifications: lactam N-10; disulfide 2-6; not fully specified (residue 3); printed as Nmapt(§1)-C(§3)(@2)-K[aAc](@3)-W-Q-C(@2)-Yae-Nal-Thp-E(§1)-N—N—NH2; reading uncertain; also: K[aAc]: Cys2 bonded to epsilon-NH2 of acetylated Lys3, acetyl presumably on alpha-amine
B9: Compound of SEQ ID NO: 15 (peptide)
peptide: [Nmapt]CKWQC[AEF][2Nal][Aib]ENG-NH2
modifications: lactam N-10; disulfide 2-6; not fully specified (residue 3); printed as Nmapt(§1)-C(§3)(@2)-K[aAc](@3)-W-Q-C(@2)-Yae-Nal-Aib-E(§1)-N-G-NH2; reading uncertain; also: K3 acetylated (K[aAc]), acetyl site not given here, ε-NH2 takes the Cys2 bond
B10: Compound of SEQ ID NO: 11 (peptide)
peptide: [Dad]CNTWQC[Phe(4-OMe)][2Nal][Aib]KNN-NH2
modifications: lactam (positions not given here); disulfide 2-7; not fully specified (bridges); printed as Dad(§1)-C(@2)-N-T-W-Q-C(@2)-Yme-Nal-Aib-K(§1)-N—N—NH2
B11: Compound of SEQ ID NO: 17 (peptide)
peptide: [Nmapt]CKWQC[AEF][2Nal][Thp]EAG-NH2
modifications: lactam N-10; disulfide 2-6; not fully specified (residue 3); printed as Nmapt(§1)-C(§3)(@2)-K[aAc](@3)-W-Q-C(@2)-Yae-Nal-Thp-E(§1)-A-G-NH2; reading uncertain; also: K3 acetylated (K[aAc]), acetyl site not given here, ε-NH2 takes the Cys2 bond
B12: Compound of SEQ ID NO: 14 (peptide)
peptide: [Nmapt]CKWQC[AEF][2Nal][αMeL]ENN-NH2
modifications: lactam N-10; disulfide 2-6; not fully specified (residue 3); printed as Nmapt(§1)-C(§3)(@2)-K[aAc](@3)-W-Q-C(@2)-Yae-Nal-Mle-E(§1)-N—N—NH2; reading uncertain; also: K[aAc]: Cys2 bonded to epsilon-NH2 of acetylated Lys3, acetyl presumably on alpha-amine

Key:
[1] = target: T2, human interleukin-23 receptor (recombinant human IL-23R-Fc chimera) (Homo sapiens, UniProt Q5VWK5); assay: Human ELISA IL23/IL23R (assay for specific human IL23R antagonists); format: binding; details: Table 10; read-out: Human ELISA IL23/IL23R IC50
T2 construct: Fc (IgG Fc fusion)
Description: Antagonism of compounds for human interleukin-23 receptor antagonists, was determined by an ELISA assay.
A 384-well plate was coated with 50 μl/well of human IL23 at a final concentration of […] and incubated overnight at 4° C. The wells were washed 3 times with 80 μl wash buffer and blocked with 80 μl blocking buffer for 60 minutes at room temperature and washed again. 20 μl of serially diluted test peptides was added to each well and subsequently 20 μl of recombinant human IL-23R-Fc chimera at final concentration of 0.1 μg/ml. The plate was incubated for 60 minutes at room temperature. After the wells were washed, bound IL23R-Fc was detected with goat anti-hu-IgG1-HRP antibody. Signals were visualized with QuantaBlu Fluorogenic Peroxidase Substrate.

[2] = test system: IL-23 induced STAT3 signaling in HEK-Blue™ IL-23 cells; assay: IL-23 induced STAT3 signaling in HEK-Blue IL-23 cells (SEAP reporter); format: cell-based; details: human IL23 0.25 ng/ml, read-out: pSTAT3
Excerpt: HEK-Blue™ IL-23 cells (Invivogen) are designed for the detection of bioactive human (hIL-23) and murine IL-23 (mIL-23) by monitoring the activation of the STAT3 pathway. Binding of IL-23 to its receptor on the surface of HEK-Blue™ IL-23 cells triggers a signalling cascade leading to the activation of STAT3 and the subsequent production of secreted embryonic alkaline phosphatase (SEAP). This can be readily assessed using QUANTI-Blue™ Solution, a SEAP detection reagent.
HEK-Blue™ IL-23 cells were cultured as described by Invivogen.
On the first day of assay 10 μL of the HEK-Blue IL23 cell suspension (final concentration: 10,000 cells/well) and 10 μl of serially diluted peptides solutions were dispensed into a 384-well assay plate. After pre-incubation of the reaction mixtures at 37° C./5% CO2/95% humidity for 60 minutes, 10 μl of the human IL23 cytokine (final concentration: 0.25 ng/ml) was added to each well for the STAT3 signalling activation. The plate was incubated overnight at 37° C./5% CO2/95% humidity.
On the second day 20 μl per well of Quanti-Blue detection solution (prepared according to the manufacture instruction) was dispensed into a new 384-well plate and followed by the transfer of 5 μl supernatant of the overnight incubated cell/sample mixtures. After incubation of 45 min at room temperature signals were measured with PHERAstar (BMG) at OD 620-655 nm. Dose response data were fitted with XLfit.

[3] = target: T1, IL-23 receptor on the surface of …; assay: cell-based or functional assay

Row | Molecule | IC50 [1] [nM] | IC50 [2] [nM] | pSTAT3 (nM) [3] [nM]
1 | COc1ccc(C[C@@H]2NC(=O)[C@H]3NC(=O)[C@H](CCC(N)=O)NC(=O)[C@H](Cc4c[nH]c5ccccc45)NC(=O)CCCCNC(=O)[C@H](CCC(=O)O[C@@H]3C)NC(=O)CCCCCNC(=O)C[C@@H](C(=O)N[C@@H](CC(N)=O)C(=O)N[C@@H](CC(N)=O)C(N)=O)NC(=O)C(C)(C)NC(=O)[C@H](Cc3ccc4ccccc4c3)NC2=O)cc1 [compound 39] ([Ahx]E[Ava]WQTY(Me)[2Nal][Aib]DNN-NH2; ester 2-6; lactam N-10) | 1.1 | 26.4 | 
2 | B1 |  |  | 54
3 | B2 |  |  | 69.5
4 | B3 |  |  | 25.8
5 | B4 |  |  | 32.1
6 | B5 |  |  | 88.3
7 | B6 |  |  | 27.9
8 | B7 |  |  | 18.5
9 | B8 |  |  | 32
10 | B9 |  |  | 29.2
11 | B10 |  |  | 53.5
12 | B11 |  |  | 62
13 | B12 |  |  | 18.7
